Target: biotinylated full-length human IGF-I receptor (human) (UniProt P08069)
Test: ELISA titration, similar to that of the whole antibody

Sequence of Fab fragment of EM164 antibody (VH): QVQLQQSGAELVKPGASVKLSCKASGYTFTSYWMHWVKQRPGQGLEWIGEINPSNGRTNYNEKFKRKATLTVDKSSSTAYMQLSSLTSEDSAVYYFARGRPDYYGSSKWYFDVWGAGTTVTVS
Sequence of Fab fragment of EM164 antibody (VL): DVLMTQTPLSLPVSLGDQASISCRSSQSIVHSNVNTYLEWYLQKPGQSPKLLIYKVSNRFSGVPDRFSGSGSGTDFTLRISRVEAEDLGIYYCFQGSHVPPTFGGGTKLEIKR

**Q.** For Fab fragment of EM164 antibody, which Kd is on record?
**A.** 300 pM
